Experimental data published in paper PMC2582951.

Molecular target: cerFP505 (ceriantharian fluorescent protein with an emission maximum at 505 nm) (deep sea ceriantharian (taxon Spirularia, species not determined))
Assay: SEC; elution profile of purified recombinant cerFP505; conditions as described in refs 43, 44

cerFP505 (ceriantharian fluorescent protein with an emission maximum at 505 nm) (natural protein)
stoichiometry N: 4
